Numbering of substitutions follows the chain as printed.
T1: HMMW micropeptide (recombinant, purified from Escherichia coli BL21) (human)
T1 construct: also called purified HMMW micropeptide; human HMMW micropeptide
T1 peptide: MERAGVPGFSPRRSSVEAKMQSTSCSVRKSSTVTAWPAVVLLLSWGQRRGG

B1: Anti-HMMW antibody-2 (antibody, V domains shown)
VH: EVKLEESGGGLVQPGGSMKVSCVGSGFTFSNYWMNWVRQSPEKGLEWVAEIRLKSNNYATHYAESVKGRFTISRDDSKRSVYLQMNNLRVEDTGIYYCTTEAVDYWGQGTSVTVSS
VL: DIVMTQAAFSNPVTLGTSASISCRSSKSLLHSNGITYLYWYLQKPGQSPQLLIYQMSNLASGVPDRFSSSGSGTDFTLRISRVEAEDVGVYYCAQNLELPTFGGGTKLEIKR
notes: Mouse monoclonal antibody from a BALB/c x SP2/0 hybridoma; also called anti-HMMW-2 antibody
B2: Anti-HMMW antibody-6 (antibody, V domains shown)
VH: B1 VH with V20L, G24A, K67T, R79S, V90A, T100L
VL: DIVMTQAAFSNPVTLGTSASISCRSSKSLLHSDGITYLYWFLQKPGQSPQLLIYQMSNLASGVPDRFSSSGSGTDFTLRISRVEAEDVGVYYCAQNLELPTFGGGTKLEIK
notes: Mouse monoclonal antibody from a BALB/c x SP2/0 hybridoma; also called anti-HMMW-6 antibody
B3: Anti-HMMW antibody-1 (antibody, V domains shown)
VH: EVKLEESGGGLVQPGGSMKFSCVASGFTFSNYWMNWVRQSPERGLEWVAEIKLKSNNYATLYAESVKGRFTISRDDSKSSVYLQVNNLRAEDTGIYYCITEIFDYWGQGTTLTVSS
VL: QAVVTQESALTTSPGETVTLTCRSSTGAVTTSNYATWVQEKPDHLFTGLIVGANNRAPGVPARFSGSLIGDKAALTITGAQTEDEAIYFCALWFLNHWVFGGGTKLTVLG
notes: Mouse monoclonal antibody from a BALB/c x SP2/0 hybridoma; also called anti-HMMW-1 antibody
B4: Anti-HMMW antibody-8 (antibody, V domains shown)
VH: B3 VH with F20V, R43K, N56D, N57I, Y58D, L61N, Y82S, V85M, I99S
VL: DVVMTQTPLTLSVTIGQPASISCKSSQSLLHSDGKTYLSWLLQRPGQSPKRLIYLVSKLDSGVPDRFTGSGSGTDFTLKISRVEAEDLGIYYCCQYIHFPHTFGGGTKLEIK
notes: Mouse monoclonal antibody from a BALB/c x SP2/0 hybridoma; also called anti-HMMW-8 antibody
B5: Anti-HMMW antibody-7 (antibody, V domains shown)
VH: B3 VH with M18K, F20L, V23F, R43K, K52Q, L61H, V85M, I99T, Y105F
VL: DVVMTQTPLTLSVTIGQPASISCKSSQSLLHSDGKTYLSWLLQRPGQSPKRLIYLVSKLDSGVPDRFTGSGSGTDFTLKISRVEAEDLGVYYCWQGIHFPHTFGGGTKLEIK
notes: Mouse monoclonal antibody from a BALB/c x SP2/0 hybridoma; also called anti-HMMW-7 antibody
B6: Anti-HMMW antibody-5 (antibody, V domains shown)
VH: B3 VH with F20L, A24V, E64A, A90T
VL: QTVVTQESALTTSPGETVTLTCRSSTGSVTTSNYATWVQEKPDHLFTGLIVGANNRAPGVPARFSGSLIGDKAALTITGAQTEDEAIYFCALWFIDHWVFGGGTKLTVL
notes: Mouse monoclonal antibody from a BALB/c x SP2/0 hybridoma; also called anti-HMMW-5 antibody
B7: Anti-HMMW antibody-3 (antibody, V domains shown)
VH: EVKLEESGGGLVQPGGSMKLSCVASGFTFSDYWMNWVRQSPEKGLEWLTEIRLKSDNYATHYAESVKGKFTISRDDSKSTVYLQMNNLRAEDTGIYYCSVETMDFWGQGTSVTVSS
VL: QAVVTQESALTTSPGETVTLTCRSSIGAVTTNNYANWVQEKPDRLFTGLIRGTNNRVPGVPARFSGSLIGDKAALTITGAQTEDEAIYFCALWYSNHWVFGGGTKLTVL
notes: Mouse monoclonal antibody from a BALB/c x SP2/0 hybridoma; also called anti-HMMW-3 antibody
B8: Anti-HMMW antibody-4 (antibody, V domains shown)
VH: B7 VH with D56N, A59L, K69R, T80S, F105Y, T110I
VL: B7 VL with P14S, I26T, N32S, R44H, V57A
notes: Mouse monoclonal antibody from a BALB/c x SP2/0 hybridoma; also called anti-HMMW-4 antibody

Target: T1, HMMW micropeptide (recombinant, …)
Experiment: indirect ELISA, HMMW micropeptide coated at 1 ug/ml
Description: (§1) The antigen coating concentration of the HMMW micropeptide was 1 μg/ml and 5% milk PBS-T was used for sealing. The dilution multiples of eight antibodies were: 1: 3.125 K/6.25 K/12.5 K/25 K/5O K/100 K. The primary antibodies were incubated at 37° C. for 1 h and the secondary antibodies were incubated at 37° C. for 45 min. A color developing solution was added, reaction was performed at 37° C. for 15 min, the reaction was terminated, and the value was read. It can be seen from Table 2 below that the titers of the eight antibodies all reached 1: 100 K, meeting the requirements for subsequent antigen detection.

B1 and B2 cannot be ordered by titer: ≥ 100000 dilution (1:x) for the first, ≥ 100000 dilution (1:x) for the second.

B3 and B4 cannot be ordered by titer: ≥ 100000 dilution (1:x) for the first, ≥ 100000 dilution (1:x) for the second.

B5 and B6 cannot be ordered by titer: ≥ 100000 dilution (1:x) for the first, ≥ 100000 dilution (1:x) for the second.

B7 and B8 cannot be ordered by titer: ≥ 100000 dilution (1:x) for the first, ≥ 100000 dilution (1:x) for the second.

Target: T1, HMMW micropeptide (recombinant, …)
Experiment: indirect ELISA, HMMW micropeptide coated at 1 ug/ml, antibody dilution 1:25K
Description: as §1

First: B1
Second: B2
The “ELISA reading at antibody dilution 1:25K” value of the first is higher: 3.19 for the first, 2.55 for the second.

Compared with B3, B4 is higher in “ELISA reading at antibody dilution 1:25K” value: 2.13 for the first, 2.97 for the second.

Compared with B5, B6 is higher in “ELISA reading at antibody dilution 1:25K” value: 2.15 for the first, 2.48 for the second.

Compared with B7, B8 is higher in “ELISA reading at antibody dilution 1:25K” value: 3.04 for the first, 3.13 for the second.

Target: T1, HMMW micropeptide (recombinant, …)
Experiment: indirect ELISA, HMMW micropeptide coated at 1 ug/ml, antibody dilution 1:50K
Description: as §1

Going from B1 to B2, the “ELISA reading at antibody dilution 1:50K” value falls from 2.94 to 2.2.

First: B3
Second: B4
The “ELISA reading at antibody dilution 1:50K” value of the first is lower: 1.85 for the first, 2.96 for the second.

Going from B5 to B6, the “ELISA reading at antibody dilution 1:50K” value rises from 2.14 to 2.31.

First: B7
Second: B8
The “ELISA reading at antibody dilution 1:50K” value of the first is higher: 2.92 for the first, 2.81 for the second.

Target: T1, HMMW micropeptide (recombinant, …)
Experiment: indirect ELISA, HMMW micropeptide coated at 1 ug/ml, antibody dilution 1:100K
Description: as §1

Going from B1 to B2, the “ELISA reading at antibody dilution 1:100K” value falls from 2.73 to 2.16.

Going from B3 to B4, the “ELISA reading at antibody dilution 1:100K” value rises from 1.14 to 2.79.

First: B5
Second: B6
The “ELISA reading at antibody dilution 1:100K” value of the first is lower: 1.7 for the first, 2 for the second.

Compared with B7, B8 is higher in “ELISA reading at antibody dilution 1:100K” value: 2.54 for the first, 2.57 for the second.

Target: T1, HMMW micropeptide (recombinant, …)
Experiment: indirect ELISA, HMMW micropeptide coated at 1 ug/ml, antibody dilution 1:12.5K
Description: as §1

Compared with B1, B2 is lower in “ELISA reading at antibody dilution 1:12.5K” value: 3.23 for the first, 2.96 for the second.

Compared with B3, B4 is higher in “ELISA reading at antibody dilution 1:12.5K” value: 2.38 for the first, 3.11 for the second.

Compared with B5, B6 is higher in “ELISA reading at antibody dilution 1:12.5K” value: 2.27 for the first, 2.56 for the second.

First: B7
Second: B8
The “ELISA reading at antibody dilution 1:12.5K” value of the first is lower: 3.22 for the first, 3.35 for the second.

Target: T1, HMMW micropeptide (recombinant, …)
Experiment: indirect ELISA, HMMW micropeptide coated at 1 ug/ml, antibody dilution 1:6.25K
Description: as §1

First: B1
Second: B2
The “ELISA reading at antibody dilution 1:6.25K” value of the first is higher: 3.35 for the first, 3.19 for the second.

Going from B3 to B4, the “ELISA reading at antibody dilution 1:6.25K” value rises from 2.59 to 3.16.

First: B5
Second: B6
The “ELISA reading at antibody dilution 1:6.25K” value of the first is lower: 2.26 for the first, 2.81 for the second.

First: B7
Second: B8
The “ELISA reading at antibody dilution 1:6.25K” value of the first is lower: 3.4 for the first, 3.45 for the second.

Target: T1, HMMW micropeptide (recombinant, …)
Experiment: indirect ELISA, HMMW micropeptide coated at 1 ug/ml, antibody dilution 1:3.125K
Description: as §1

First: B1
Second: B2
The “ELISA reading at antibody dilution 1:3.125K” value of the first is lower: 3.33 for the first, 3.37 for the second.

First: B3
Second: B4
The “ELISA reading at antibody dilution 1:3.125K” value of the first is lower: 2.85 for the first, 3.45 for the second.

Going from B5 to B6, the “ELISA reading at antibody dilution 1:3.125K” value rises from 2.4 to 2.92.

Going from B7 to B8, the “ELISA reading at antibody dilution 1:3.125K” value falls from 3.57 to 3.52.

From patent US20240247079A1 (NANJING ANJI BIOLOGICAL TECHNOLOGY, published 2024)
